Results as given in patent US12679878B2, “CRF2 receptor agonists and their use in therapy” (SANOFI, priority 2020, dated 2026).
Starred links: 1 amine or outer side, 2 acyl side, 3 side chain; linkers in the order of their positions; H or OH if unused. Non-standard residues stand in square brackets, D forms with d. Groups on a side chain read outwards from the residue. No end group written: not given here. *: point of attachment. C20 diacid = O=C(O)CCCCCCCCCCCCCCCCCCC(=O)*; C18 diacid = O=C(O)CCCCCCCCCCCCCCCCC(=O)*; C16 diacid = O=C(O)CCCCCCCCCCCCCCC(=O)*; γGlu = O=C(O)[C@H](CCC(=O)[*:2])N[*:1]; Palmitoyl = CCCCCCCCCCCCCCCC(=O)*; AEEA = NCCOCCOCC(=O)O; Aib = CC(C)(N)C(=O)O

B1: peptide of SEQ ID NO: 223 (peptide)
peptide: IVLSLD[dV]PTKLK([γGlu-Palmitoyl])QKLLKQERQRKEREQAEKNKRILERV-NH2
modifications: N-terminus assumed
SMILES: CCCCCCCCCCCCCCCC(=O)N[C@@H](CCC(=O)NCCCC[C@H](NC(=O)[C@H](CC(C)C)NC(=O)[C@H](CCCCN)NC(=O)[C@@H](NC(=O)[C@@H]1CCCN1C(=O)[C@H](NC(=O)[C@H](CC(=O)O)NC(=O)[C@H](CC(C)C)NC(=O)[C@H](CO)NC(=O)[C@H](CC(C)C)NC(=O)[C@@H](NC(=O)[C@@H](N)[C@@H](C)CC)C(C)C)C(C)C)[C@@H](C)O)C(=O)N[C@@H](CCC(N)=O)C(=O)N[C@@H](CCCCN)C(=O)N[C@@H](CC(C)C)C(=O)N[C@@H](CC(C)C)C(=O)N[C@@H](CCCCN)C(=O)N[C@@H](CCC(N)=O)C(=O)N[C@@H](CCC(=O)O)C(=O)N[C@@H](CCCNC(=N)N)C(=O)N[C@@H](CCC(N)=O)C(=O)N[C@@H](CCCNC(=N)N)C(=O)N[C@@H](CCCCN)C(=O)N[C@@H](CCC(=O)O)C(=O)N[C@@H](CCCNC(=N)N)C(=O)N[C@@H](CCC(=O)O)C(=O)N[C@@H](CCC(N)=O)C(=O)N[C@@H](C)C(=O)N[C@@H](CCC(=O)O)C(=O)N[C@@H](CCCCN)C(=O)N[C@@H](CC(N)=O)C(=O)N[C@@H](CCCCN)C(=O)N[C@@H](CCCNC(=N)N)C(=O)N[C@H](C(=O)N[C@@H](CC(C)C)C(=O)N[C@@H](CCC(=O)O)C(=O)N[C@@H](CCCNC(=N)N)C(=O)N[C@H](C(N)=O)C(C)C)[C@@H](C)CC)C(=O)O
B2: peptide of SEQ ID NO: 197 (peptide)
peptide: IVLSLD[dV]PIKLK([γGlu-C16 diacid])QILLKQARQK[Aib]QRAQAEKNKRILERV-NH2
modifications: N-terminus assumed
SMILES: CC[C@H](C)[C@H](N)C(=O)N[C@H](C(=O)N[C@@H](CC(C)C)C(=O)N[C@@H](CO)C(=O)N[C@@H](CC(C)C)C(=O)N[C@@H](CC(=O)O)C(=O)N[C@@H](C(=O)N1CCC[C@H]1C(=O)N[C@H](C(=O)N[C@@H](CCCCN)C(=O)N[C@@H](CC(C)C)C(=O)N[C@@H](CCCCNC(=O)CC[C@H](NC(=O)CCCCCCCCCCCCCCC(=O)O)C(=O)O)C(=O)N[C@@H](CCC(N)=O)C(=O)N[C@H](C(=O)N[C@@H](CC(C)C)C(=O)N[C@@H](CC(C)C)C(=O)N[C@@H](CCCCN)C(=O)N[C@@H](CCC(N)=O)C(=O)N[C@@H](C)C(=O)N[C@@H](CCCNC(=N)N)C(=O)N[C@@H](CCC(N)=O)C(=O)N[C@@H](CCCCN)C(=O)NC(C)(C)C(=O)N[C@@H](CCC(N)=O)C(=O)N[C@@H](CCCNC(=N)N)C(=O)N[C@@H](C)C(=O)N[C@@H](CCC(N)=O)C(=O)N[C@@H](C)C(=O)N[C@@H](CCC(=O)O)C(=O)N[C@@H](CCCCN)C(=O)N[C@@H](CC(N)=O)C(=O)N[C@@H](CCCCN)C(=O)N[C@@H](CCCNC(=N)N)C(=O)N[C@H](C(=O)N[C@@H](CC(C)C)C(=O)N[C@@H](CCC(=O)O)C(=O)N[C@@H](CCCNC(=N)N)C(=O)N[C@H](C(N)=O)C(C)C)[C@@H](C)CC)[C@@H](C)CC)[C@@H](C)CC)C(C)C)C(C)C
B3: peptide of SEQ ID NO: 226 (peptide)
peptide: IVLSLD[dV]PIGLK([γGlu-Palmitoyl])QKLLKQQRQRKERQQAEKNKRILERV-NH2
modifications: N-terminus assumed
SMILES: CCCCCCCCCCCCCCCC(=O)N[C@@H](CCC(=O)NCCCC[C@H](NC(=O)[C@H](CC(C)C)NC(=O)CNC(=O)[C@@H](NC(=O)[C@@H]1CCCN1C(=O)[C@H](NC(=O)[C@H](CC(=O)O)NC(=O)[C@H](CC(C)C)NC(=O)[C@H](CO)NC(=O)[C@H](CC(C)C)NC(=O)[C@@H](NC(=O)[C@@H](N)[C@@H](C)CC)C(C)C)C(C)C)[C@@H](C)CC)C(=O)N[C@@H](CCC(N)=O)C(=O)N[C@@H](CCCCN)C(=O)N[C@@H](CC(C)C)C(=O)N[C@@H](CC(C)C)C(=O)N[C@@H](CCCCN)C(=O)N[C@@H](CCC(N)=O)C(=O)N[C@@H](CCC(N)=O)C(=O)N[C@@H](CCCNC(=N)N)C(=O)N[C@@H](CCC(N)=O)C(=O)N[C@@H](CCCNC(=N)N)C(=O)N[C@@H](CCCCN)C(=O)N[C@@H](CCC(=O)O)C(=O)N[C@@H](CCCNC(=N)N)C(=O)N[C@@H](CCC(N)=O)C(=O)N[C@@H](CCC(N)=O)C(=O)N[C@@H](C)C(=O)N[C@@H](CCC(=O)O)C(=O)N[C@@H](CCCCN)C(=O)N[C@@H](CC(N)=O)C(=O)N[C@@H](CCCCN)C(=O)N[C@@H](CCCNC(=N)N)C(=O)N[C@H](C(=O)N[C@@H](CC(C)C)C(=O)N[C@@H](CCC(=O)O)C(=O)N[C@@H](CCCNC(=N)N)C(=O)N[C@H](C(N)=O)C(C)C)[C@@H](C)CC)C(=O)O
B4: peptide of SEQ ID NO: 18 (peptide)
peptide: IVLSLD[dV]PTKLK([γGlu-Palmitoyl])QKLLKQERQRKEREQAEKNKRILERV-NH2
modifications: N-terminus assumed
SMILES: CCCCCCCCCCCCCCCC(=O)N[C@@H](CCC(=O)NCCCC[C@H](NC(=O)[C@H](CC(C)C)NC(=O)[C@H](CCCCN)NC(=O)[C@@H](NC(=O)[C@@H]1CCCN1C(=O)[C@H](NC(=O)[C@H](CC(=O)O)NC(=O)[C@H](CC(C)C)NC(=O)[C@H](CO)NC(=O)[C@H](CC(C)C)NC(=O)[C@@H](NC(=O)[C@@H](N)[C@@H](C)CC)C(C)C)C(C)C)[C@@H](C)O)C(=O)N[C@@H](CCC(N)=O)C(=O)N[C@@H](CCCCN)C(=O)N[C@@H](CC(C)C)C(=O)N[C@@H](CC(C)C)C(=O)N[C@@H](CCCCN)C(=O)N[C@@H](CCC(N)=O)C(=O)N[C@@H](CCC(=O)O)C(=O)N[C@@H](CCCNC(=N)N)C(=O)N[C@@H](CCC(N)=O)C(=O)N[C@@H](CCCNC(=N)N)C(=O)N[C@@H](CCCCN)C(=O)N[C@@H](CCC(=O)O)C(=O)N[C@@H](CCCNC(=N)N)C(=O)N[C@@H](CCC(=O)O)C(=O)N[C@@H](CCC(N)=O)C(=O)N[C@@H](C)C(=O)N[C@@H](CCC(=O)O)C(=O)N[C@@H](CCCCN)C(=O)N[C@@H](CC(N)=O)C(=O)N[C@@H](CCCCN)C(=O)N[C@@H](CCCNC(=N)N)C(=O)N[C@H](C(=O)N[C@@H](CC(C)C)C(=O)N[C@@H](CCC(=O)O)C(=O)N[C@@H](CCCNC(=N)N)C(=O)N[C@H](C(N)=O)C(C)C)[C@@H](C)CC)C(=O)O
B5: peptide of SEQ ID NO: 36 (peptide)
peptide: IVLSLD[dV]PTKLK([AEEA-AEEA-γGlu-C18 diacid])QKLLKQERQRK[Aib]REQAEKNKRILERV-NH2
modifications: N-terminus assumed
SMILES: CC[C@H](C)[C@H](N)C(=O)N[C@H](C(=O)N[C@@H](CC(C)C)C(=O)N[C@@H](CO)C(=O)N[C@@H](CC(C)C)C(=O)N[C@@H](CC(=O)O)C(=O)N[C@@H](C(=O)N1CCC[C@H]1C(=O)N[C@H](C(=O)N[C@@H](CCCCN)C(=O)N[C@@H](CC(C)C)C(=O)N[C@@H](CCCCNC(=O)COCCOCCNC(=O)COCCOCCNC(=O)CC[C@H](NC(=O)CCCCCCCCCCCCCCCCC(=O)O)C(=O)O)C(=O)N[C@@H](CCC(N)=O)C(=O)N[C@@H](CCCCN)C(=O)N[C@@H](CC(C)C)C(=O)N[C@@H](CC(C)C)C(=O)N[C@@H](CCCCN)C(=O)N[C@@H](CCC(N)=O)C(=O)N[C@@H](CCC(=O)O)C(=O)N[C@@H](CCCNC(=N)N)C(=O)N[C@@H](CCC(N)=O)C(=O)N[C@@H](CCCNC(=N)N)C(=O)N[C@@H](CCCCN)C(=O)NC(C)(C)C(=O)N[C@@H](CCCNC(=N)N)C(=O)N[C@@H](CCC(=O)O)C(=O)N[C@@H](CCC(N)=O)C(=O)N[C@@H](C)C(=O)N[C@@H](CCC(=O)O)C(=O)N[C@@H](CCCCN)C(=O)N[C@@H](CC(N)=O)C(=O)N[C@@H](CCCCN)C(=O)N[C@@H](CCCNC(=N)N)C(=O)N[C@H](C(=O)N[C@@H](CC(C)C)C(=O)N[C@@H](CCC(=O)O)C(=O)N[C@@H](CCCNC(=N)N)C(=O)N[C@H](C(N)=O)C(C)C)[C@@H](C)CC)[C@@H](C)O)C(C)C)C(C)C

target: T1, CRF1R receptor (anti-target) (UniProt P34998 24-415, limits assumed); assay: cell-based or functional assay
T1 sequence (looked up): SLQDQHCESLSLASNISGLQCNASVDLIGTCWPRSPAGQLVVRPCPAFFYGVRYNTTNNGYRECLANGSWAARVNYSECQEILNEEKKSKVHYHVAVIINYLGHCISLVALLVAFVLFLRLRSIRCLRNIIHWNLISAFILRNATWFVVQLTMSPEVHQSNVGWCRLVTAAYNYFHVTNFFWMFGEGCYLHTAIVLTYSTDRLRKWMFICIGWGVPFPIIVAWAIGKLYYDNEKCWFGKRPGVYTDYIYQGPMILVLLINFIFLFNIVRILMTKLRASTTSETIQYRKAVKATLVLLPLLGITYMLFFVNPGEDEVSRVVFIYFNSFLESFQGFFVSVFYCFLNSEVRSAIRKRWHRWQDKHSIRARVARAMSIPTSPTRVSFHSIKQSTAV

| Binder | EC50 [nM] 0% HSA (cAMP, HTRF) | Emax (%) (100% = Sauvagine at 100 nM) |
| --- | --- | --- |
| B1 | 82.8 nM | 57.3% |
| IVLSLD[dV]PTKLK([γGlu-Palmitoyl])QKLLKQERQRKERE[Aib]AEKNKRILERV-NH2 [peptide of SEQ ID NO: 225] | 24.2 nM | 58.9% |
| B2 | > 100 nM | 24.4% |
| IVLSLD[dV]PTKLK([AEEA-AEEA-γGlu-C20 diacid])KKLLKQERKR[Aib]EREKAEKAARILERV-NH2 [peptide of SEQ ID NO: 224] | > 100 nM | 52.6% |
| B3 | 96.2 nM | 84% |

target: rat CRF2R α receptor (rat, UniProt P47866 20-411); assay: cell-based or functional assay
Sequence (P47866 20-411): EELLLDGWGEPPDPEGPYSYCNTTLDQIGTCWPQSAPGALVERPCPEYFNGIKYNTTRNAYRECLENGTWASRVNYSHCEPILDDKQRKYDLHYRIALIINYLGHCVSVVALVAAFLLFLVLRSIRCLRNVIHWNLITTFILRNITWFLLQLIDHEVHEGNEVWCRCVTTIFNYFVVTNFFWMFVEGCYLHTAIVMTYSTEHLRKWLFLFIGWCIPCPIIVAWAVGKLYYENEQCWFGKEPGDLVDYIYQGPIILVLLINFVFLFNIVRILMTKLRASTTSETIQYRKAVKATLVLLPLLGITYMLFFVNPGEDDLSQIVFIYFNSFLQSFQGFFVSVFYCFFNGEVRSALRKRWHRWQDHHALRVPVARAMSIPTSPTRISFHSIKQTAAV

| Binder | EC50 [nM], 0% HSA (cAMP, A7R5 cells) |
| --- | --- |
| B4 | 0.02 nM |
| B5 | 13.3 nM |
